Results taken from the supplement of paper PMC10567573.

B1: LRRC45 (parent)
chain: DLSAANEKNLLLQNQVDELERKFR
B2: RHOBTB2 (parent)
chain: LYTGELDENERDLMHIAHIAELLE
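Also: lentivirally expressed fusions sorted by FACS into six bins by GFP to DsRed ratio, PSI derived from sequencing read proportions per bin multiplied by bin number.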

Variants of: B1
Assay: protein stability index of a GFP-peptide fusion (GPS, HEK-293T) (PSI 1-6); higher = more stable
Conditions: c terminus: a fixed tail appended
DLSAANEKNLLLQNQVDELECKFR [R21C] gave a protein stability index of 3.74. DLSAANEKNLLLQNQVDELEWKFR [R21W] gave a protein stability index of 3.63. With DLSAANEKNLLLQNQVDELEDKFR [R21D] the protein stability index was 4.28. DLSAANEKNLLLQNQVDELENKFR [R21N] showed a protein stability index of 4.47. For DLSAANEKNLLLQNQVDELEPKFR [R21P], the protein stability index was 4.2. For DLSAANEKNLLLQNQVDELEKKFR [R21K], the protein stability index was 3.93. In the case of DLSAANEKNLLLQNQVDELEVKFR [R21V], the protein stability index is reported as 4.05. DLSAANEKNLLLQNQVDELEQKFR [R21Q] showed a protein stability index of 4.09. With DLSAANEKNLLLQNQVDELEAKFR [R21A] the protein stability index was 4.09. With DLSAANEKNLLLQNQVDELEMKFR [R21M] the protein stability index was 3.97. DLSAANEKNLLLQNQVDELEFKFR [R21F] showed a protein stability index of 3.57. Work on DLSAANEKNLLLQNQVDELEYKFR [R21Y] yielded a protein stability index of 4.14. With DLSAANEKNLLLQNQVDELEHKFR [R21H] the protein stability index was 4.22. DLSAANEKNLLLQNQVDELELKFR [R21L] showed a protein stability index of 3.74. In the case of DLSAANEKNLLLQNQVDELESKFR [R21S], the protein stability index is reported as 4.23. With DLSAANEKNLLLQNQVDELEIKFR [R21I] the protein stability index was 3.55. Work on DLSAANEKNLLLQNQVDELEEKFR [R21E] yielded a protein stability index of 4.56. DLSAANEKNLLLQNQVDELETKFR [R21T] showed a protein stability index of 4. In the case of DLSAANEKNLLLQNQVDELEGKFR [R21G], the protein stability index is reported as 4.49. DLSAANEKNLLLQNQVDELERKFM [R24M] gave a protein stability index of 3.96. DLSAANEKNLLLQNQVDELERKFQ [R24Q] gave a protein stability index of 4.91. In the case of DLSAANEKNLLLQNQVDELERKFS [R24S], the protein stability index is reported as 4.25. With DLSAANEKNLLLQNQVDELERKFI [R24I] the protein stability index was 3.85. DLSAANEKNLLLQNQVDELERKFL [R24L] gave a protein stability index of 3.78. For DLSAANEKNLLLQNQVDELERKFT [R24T], the protein stability index was 4.14. With DLSAANEKNLLLQNQVDELERKFK [R24K] the protein stability index was 4.66. DLSAANEKNLLLQNQVDELERKFE [R24E] showed a protein stability index of 4.71. Work on DLSAANEKNLLLQNQVDELERKFY [R24Y] yielded a protein stability index of 4.17. With DLSAANEKNLLLQNQVDELERKFW [R24W] the protein stability index was 3.52. With DLSAANEKNLLLQNQVDELERKFC [R24C] the protein stability index was 4.36. With DLSAANEKNLLLQNQVDELERKFV [R24V] the protein stability index was 3.71. Work on DLSAANEKNLLLQNQVDELERKFP [R24P] yielded a protein stability index of 4.59. For DLSAANEKNLLLQNQVDELERKFN [R24N], the protein stability index was 4.47. DLSAANEKNLLLQNQVDELERKFH [R24H] gave a protein stability index of 4.31. With DLSAANEKNLLLQNQVDELERKFA [R24A] the protein stability index was 4.69. Work on DLSAANEKNLLLQNQVDELERKFG [R24G] yielded a protein stability index of 4.48. Work on DLSAANEKNLLLQNQVDELERKFF [R24F] yielded a protein stability index of 3.62. Work on DLSAANEKNLLLQNQVDELERKFD [R24D] yielded a protein stability index of 4.86. Variant DLSAANEKNLLLQNQVDELERCFR [K22C] has a protein stability index of 3.47. DLSAANEKNLLLQNQVDELERNFR [K22N] showed a protein stability index of 4.18. DLSAANEKNLLLQNQVDELERSFR [K22S] gave a protein stability index of 4.15. DLSAANEKNLLLQNQVDELEREFR [K22E] showed a protein stability index of 4.26. Variant DLSAANEKNLLLQNQVDELERMFR [K22M] has a protein stability index of 3.34. Variant DLSAANEKNLLLQNQVDELERAFR [K22A] has a protein stability index of 4.27. DLSAANEKNLLLQNQVDELERHFR [K22H] gave a protein stability index of 3.86. DLSAANEKNLLLQNQVDELERRFR [K22R] showed a protein stability index of 3.22. Variant DLSAANEKNLLLQNQVDELERIFR [K22I] has a protein stability index of 3.01. In the case of DLSAANEKNLLLQNQVDELERFFR [K22F], the protein stability index is reported as 3. DLSAANEKNLLLQNQVDELERPFR [K22P] gave a protein stability index of 3.88. With DLSAANEKNLLLQNQVDELERYFR [K22Y] the protein stability index was 3.34. DLSAANEKNLLLQNQVDELERTFR [K22T] gave a protein stability index of 3.71. With DLSAANEKNLLLQNQVDELERQFR [K22Q] the protein stability index was 4.06. DLSAANEKNLLLQNQVDELERLFR [K22L] showed a protein stability index of 3.49. In the case of DLSAANEKNLLLQNQVDELERVFR [K22V], the protein stability index is reported as 3.27. In the case of DLSAANEKNLLLQNQVDELERGFR [K22G], the protein stability index is reported as 3.62. Work on DLSAANEKNLLLQNQVDELERWFR [K22W] yielded a protein stability index of 3.14. Work on DLSAANEKNLLLQNQVDELERDFR [K22D] yielded a protein stability index of 4.31. DLSAANEKNLLLQNQVDELSRKFR [E20S] gave a protein stability index of 3.8. In the case of DLSAANEKNLLLQNQVDELVRKFR [E20V], the protein stability index is reported as 3.75. DLSAANEKNLLLQNQVDELWRKFR [E20W] showed a protein stability index of 2.91. With DLSAANEKNLLLQNQVDELTRKFR [E20T] the protein stability index was 3.43. Work on DLSAANEKNLLLQNQVDELYRKFR [E20Y] yielded a protein stability index of 2.86. In the case of DLSAANEKNLLLQNQVDELERKIR [F23I], the protein stability index is reported as 3.6. Work on DLSAANEKNLLLQNQVDELERKRR [F23R] yielded a protein stability index of 3.86. DLSAANEKNLLLQNQVDELERKQR [F23Q] gave a protein stability index of 4.29. Work on DLSAANEKNLLLQNQVDELERKGR [F23G] yielded a protein stability index of 4.6. DLSAANEKNLLLQNQVDELERKWR [F23W] showed a protein stability index of 3.13. With DLSAANEKNLLLQNQVDELERKYR [F23Y] the protein stability index was 3.85. DLSAANEKNLLLQNQVDELERKCR [F23C] showed a protein stability index of 4.01. With DLSAANEKNLLLQNQVDELERKMR [F23M] the protein stability index was 4.63. Variant DLSAANEKNLLLQNQVDELERKKR [F23K] has a protein stability index of 4.33. DLSAANEKNLLLQNQVDELERKDR [F23D] showed a protein stability index of 5. DLSAANEKNLLLQNQVDELERKHR [F23H] gave a protein stability index of 3.98. With DLSAANEKNLLLQNQVDELERKAR [F23A] the protein stability index was 5.13. With DLSAANEKNLLLQNQVDELERKTR [F23T] the protein stability index was 4.39. DLSAANEKNLLLQNQVDELERKNR [F23N] showed a protein stability index of 4.78. DLSAANEKNLLLQNQVDELERKLR [F23L] gave a protein stability index of 4.33. With DLSAANEKNLLLQNQVDELERKER [F23E] the protein stability index was 5.34. With DLSAANEKNLLLQNQVDELERKPR [F23P] the protein stability index was 4.77. DLSAANEKNLLLQNQVDELERKSR [F23S] gave a protein stability index of 4.36. DLSAANEKNLLLQNQVDELERKVR [F23V] gave a protein stability index of 3.91.

Variants of: B2
Assay: as above
Conditions: c terminus: a fixed tail appended
With LYTGKLDENERDLMHIAHIAELLE [E5K] the protein stability index was 2.75. Work on LYTGPLDENERDLMHIAHIAELLE [E5P] yielded a protein stability index of 2.52. LYTGMLDENERDLMHIAHIAELLE [E5M] showed a protein stability index of 2.1. Variant LYTGTLDENERDLMHIAHIAELLE [E5T] has a protein stability index of 2.75. For LYTGVLDENERDLMHIAHIAELLE [E5V], the protein stability index was 1.81. For LYTGSLDENERDLMHIAHIAELLE [E5S], the protein stability index was 2.54. Work on LYTGQLDENERDLMHIAHIAELLE [E5Q] yielded a protein stability index of 2.22. For LYTGLLDENERDLMHIAHIAELLE [E5L], the protein stability index was 2.02. With LYTGHLDENERDLMHIAHIAELLE [E5H] the protein stability index was 2.24. LYTGALDENERDLMHIAHIAELLE [E5A] gave a protein stability index of 2.12. Variant LYTGRLDENERDLMHIAHIAELLE [E5R] has a protein stability index of 3.45. Variant LYTGDLDENERDLMHIAHIAELLE [E5D] has a protein stability index of 2.63. For LYTGNLDENERDLMHIAHIAELLE [E5N], the protein stability index was 2.23.
